From PMC4180279 (Biochemistry, 2014)

Experiments:
[1] = target: Calmodulin (CaM) expressed from pET-15b (UniProt P0DP23 1-149); assay: NMR titration; 1H-15N HSQC of [15N]NCS-1 (0.8 mM) with PQIQ peptide, then equimolar unlabelled CaM/Ca2+ added to the preformed complex; 50 mM Tris pH 6.5, 50 mM NaCl, 5 mM CaCl2, 300 K; conditions: both partners purified
[2] = target: Neuronal calcium sensor-1 (NCS-1), N-terminal His tag removed with TEV protease (UniProt P62166 1-190); assay: other fluorescence titration; intrinsic tryptophan fluorescence of 1 μM NCS-1 (excitation 280 nm, emission 290-410 nm), PQIQ peptide added stepwise; 50 mM Tris pH 7.5, 50 mM NaCl, 5 mM CaCl2; room temperature; logistic fit; triplicate; conditions: both partners purified
Chain of Neuronal calcium sensor-1 (NCS-1), N-terminal His tag removed with TEV protease (P62166 whole entry): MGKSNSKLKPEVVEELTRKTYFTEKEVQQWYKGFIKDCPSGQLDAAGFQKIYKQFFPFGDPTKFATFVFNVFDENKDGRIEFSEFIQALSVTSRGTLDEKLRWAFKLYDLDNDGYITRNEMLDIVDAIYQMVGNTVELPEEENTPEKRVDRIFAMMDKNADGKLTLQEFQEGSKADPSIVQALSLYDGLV

binding result [1]: binds | EC50 [2]: 1.04 ± 0.07 µM
Binder: TVGKIYAAMMIMEYYRQSKAKKLQAMR [PQIQ peptide, synthetic P/Q peptide corresponding to residues 1903-1929 of the human P/Q receptor]
